In patent US20240124586A1 (WUXI BIOLOGICS IRELAND, published 2024):

What was measured:
[1] = biological target: T1, cynomolgus PD-1 on engineered 293F cells (W305-293F.cynoPro1.FL.pool) (cynomolgus); assay: FACS binding to cynomolgus PD-1 engineered cells
T1 construct: whole, on cells; also called cynomolgus PD-1 engineered cells
Procedure: (§1) 4.0-fold titrated Abs with 1% BSA DPBS from 40 μg/ml to 0.0001526 μg/ml were added to the cells. Plates were incubated at 4° C. for 1 hour. After wash, […] 1:150 diluted PE-labeled goat anti-human antibody (Jackson 109-115-098) was added to each well and the plates were incubated at 4° C. for 1 hour. The binding of the antibodies onto the cells was tested by flow cytometry and the mean fluorescence intensity (MFI) was analyzed by FlowJo.

[2] = biological target: T2, human PD-1 on engineered CHO-S cells (W305-CHO-S.hPro1.C6) (human, UniProt Q15116 25-288); assay: FACS competition: blocks human PD-L1 protein (W315-hPro1.ECD.mFc) binding to human PD-1 engineered cells
T2 construct: whole, on cells; also called human PD-1 engineered cells; PD-1+ cells
T2 sequence (Q15116 25-288, change not shown): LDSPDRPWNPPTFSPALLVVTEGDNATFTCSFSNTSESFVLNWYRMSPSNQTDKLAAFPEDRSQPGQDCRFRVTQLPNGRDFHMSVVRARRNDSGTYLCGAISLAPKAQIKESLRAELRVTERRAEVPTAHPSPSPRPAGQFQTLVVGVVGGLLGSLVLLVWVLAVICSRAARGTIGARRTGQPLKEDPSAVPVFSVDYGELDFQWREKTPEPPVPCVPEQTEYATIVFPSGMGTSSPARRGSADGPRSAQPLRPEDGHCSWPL
Procedure: In order to test whether the bispecific antibodies could block hPD-L1 binding to hPD-1 protein, a competitive FACS was conducted. […] Plates were incubated at 4° C. for 1 hour. After wash, the binding of W315-hPro1.ECD.mFc to cell expressive human PD-1 was detected by FITC-labeled goat anti-mouse antibody (abcam 98716 1:125). The competition binding of antibodies to the cells was tested by flow cytometry and the mean fluorescence intensity (MFI) was analyzed by FlowJo.

[3] = biological target: T2, human PD-1 on engineered CHO-S cells …; assay: FACS binding to human PD-1 engineered cells
Procedure: as §1, with “Engineered human PD-1 expressing cells W305-CHO-S.hPro1.C6 were seeded at 1×10⁵ cells/well in U-bottom 96-well plates (COSTAR 3799). Antibodies” for “4.0-fold titrated Abs”, “with 3.16-fold titration in” for “with”, “200 nM” for “40 μg/ml”, “0.002 nM” for “0.0001526 μg/ml”, “The plates” for “Plates”, “1:125” for “1:150”

[4] = biological target: T3, human CTLA-4 on engineered 293F cells (W316-293F.hPro1.FL) (human, UniProt P16410 36-223); assay: FACS binding to human CTLA-4 engineered cells
T3 construct: whole, on cells; also called human CTLA-4 engineered cells; CTLA-4+ cells
T3 sequence (P16410 36-223, change not shown): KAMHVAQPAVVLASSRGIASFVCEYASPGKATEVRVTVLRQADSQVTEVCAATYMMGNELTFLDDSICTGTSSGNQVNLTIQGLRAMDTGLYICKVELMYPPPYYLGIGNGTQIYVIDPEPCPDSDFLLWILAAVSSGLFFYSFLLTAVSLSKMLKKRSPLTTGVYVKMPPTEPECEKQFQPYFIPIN
Procedure: as §1, with “3.16-fold” for “4.0-fold”, “200 nM” for “40 μg/ml”, “0.002 nM” for “0.0001526 μg/ml”

[5] = biological target: T3, human CTLA-4 on engineered 293F cells …; assay: FACS on human CTLA-4 engineered cells
Procedure: as §1, with “3.16-fold” for “4.0-fold”, “200 nM” for “40 μg/ml”, “0.002 nM” for “0.0001526 μg/ml”

[6] = biological target: T2, human PD-1 on engineered CHO-S cells …; assay: FACS on human PD-1 engineered cells
Procedure: as §1, with “Engineered human PD-1 expressing cells W305-CHO-S.hPro1.C6 were seeded at 1×10⁵ cells/well in U-bottom 96-well plates (COSTAR 3799). Antibodies” for “4.0-fold titrated Abs”, “with 3.16-fold titration in” for “with”, “200 nM” for “40 μg/ml”, “0.002 nM” for “0.0001526 μg/ml”, “The plates” for “Plates”, “1:125” for “1:150”

| Binder | EC50 [5] [nM] | EC50 [6] [nM] | other results |
| --- | --- | --- | --- |
| WBP3055_1.153.7.hAb (antibody, V domains shown, anti-PD-1 antibody, parent of the U6 arm; also called W3055_1.153.7 (named U6); WBP3055-1.153.7.uIgG4k) VH: EVQLLESGGGLVQPGGSLRLSCAASGFTFSSHAMSWVRQAPGKGLEWVSTITGGGGSIYYADSVKGRFTISRDNSKNTLYLQMNSLRAEDTAVYYCAKNRAGEGYFDYWGQGTLVTVSS VL: SYELTQPLSVSVALGQTARITCGGDNIGNKDVHWYQQKPGQAPVLVIYRDSNRPSGIPEGFSGSNSGNTATLTISRAQAGDEADYYCQVWDSIWVFGGGTKLTVL |  |  | EC50 [1]: 3.48 nM; Top(MFI) [1]: 56700 MFI; IC50 [2]: 0.888 nM; Inhibition % [2]: 98.6% |
| T4U6.G26R.IgG4, bispecific anti-CTLA-4 x PD-1 (bispecific antibody, Light-heavy crossed chimeric Fab; first chain is T4-HC fused to U6-LC; T4 = WBP3162-1.146.19-z12; also called T4U6 antibody pair in G26R format) QVQLQESGPGLVKPSETLSLTCSVTYHTITSGYDWTWIRKPPGKGMEWIGYISYSGNTNYNPSLKSRVTISRDTSKNQFFLKLSSVTAADTAVYYCASMMVPHYYVMDAWGQGTLVTVSSASTKGPSVFPLAPCSRSTSESTAALGCLVKDYFPEPVTVSWNSGALTSGVHTFPAVLQSSGLYSLSSVVTVPSSSLGTKTYTCNVDHKPSNTKVDKRVGGGGSGGGGSSYELTQPLSVSVALGQTARITCGGDNIGNKDVHWYQQKPGQAPVLVIYRDSNRPSGIPEGFSGSNSGNTATLTISRAQAGDEADYYCQVWDSIWVFGGGTKLTVLPDIQNPDPAVYQLRDSKSSDKSVCLFTDFDSQTQVSQSKDSDVYITDKCVLDMRSMDFKSNSAVAWSQKSDFACANAFQNSIIPEDTFFPSPESS heavy: EVQLLESGGGLVQPGGSLRLSCAASGFTFSSHAMSWVRQAPGKGLEWVSTITGGGGSIYYADSVKGRFTISRDNSKNTLYLQMNSLRAEDTAVYYCAKNRAGEGYFDYWGQGTLVTVLEDLKNVFPPEVAVFEPSEAEISHTQKATLVCLATGFYPDHVELSWWVNGKEVHSGVCTDPQPLKEQPALQDSRYALSSRLRVSATFWQNPRNHFRCQVQFYGLSENDEWTQDRAKPVTQIVSAEAWGRYGPPCPPCPAPEFLGGPSVFLFPPKPKDTLMISRTPEVTCVVVDVSQEDPEVQFNWYVDGVEVHNAKTKPREEQFNSTYRVVSVLTVLHQDWLNGKEYKCKVSNKGLPSSIEKTISKAKGQPREPQVYTLPPSQEEMTKNQVSLTCLVKGFYPSDIAVEWESNGQPENNYKTTPPVLDSDGSFFLYSRLTVDKSRWQEGNVFSCSVMHEALHNHYTQKSLSLSLG light: DIVMTQTPLSLSVTPGQPASISCRSSQSLLNSDGNTYLYWYLQKPGQSPQLLIYLVSKLGSGVPNRFSGSGSGTDFTLKISRVEAEDVGVYYCVQGTHDPWTFGGGTKVEIKRTVAAPSVFIFPPSDEQLKSGTASVVCLLNNFYPREAKVQWKVDNALQSGNSQESVTEQDSKDSTYSLSSTLTLSKADYEKHKVYACEVTHQGLSSPVTKSFNRGEC |  |  | EC50 [3]: 4.78 nM; EC50 [4]: 5.91 nM |
| U6T5.G19.IgG4, bispecific anti-PD-1 x CTLA-4 (bispecific antibody, T5 = anti-CTLA-4 antibody W3162_1.154.8-z35; also called U6T5 in G19 format) heavy: not shown light 1: SYELTQPLSVSVALGQTARITCGGDNIGNKDVHWYQQKPGQAPVLVIYRDSNRPSGIPEGFSGSNSGNTATLTISRAQAGDEADYYCQVWDSIWVFGGGTKLTVLGQPKAAPSVTLFPPSSEELQANKATLVCLISDFYPGAVTVAWKADSSPVKAGVETTTPSKQSNNKYAASSYLSLTPEQWKSHKSYSCQVTHEGSTVEKTVAPTECS light 2: EIVLTQSPDFQSVTPKEKVTITCSANSALSYMYWYQQKPDQSPKLWVHGTSNLASGVPSRFSGSGSGTDFTLTINSLEAEDAATYYCHHWSNTQWTFGGGTKVEIKPDIQNPDPAVYQLRDSKSSDKSVCLFTDFDSQTQVSQSKDSDVYITDKCVLDMRSMDFKSNSAVAWSQKSDFACANAFQNSIIPEDTFFPSPESS | 8.93 | 0.97 |  |

Further lines, with some results ahead:

| EC50 [5] [nM] | EC50 [6] [nM] | Binder | other results |
| --- | --- | --- | --- |
| 8.23 | 1.26 | U6T5.G19R.IgG4, bispecific anti-PD-1 x CTLA-4 (bispecific antibody, also called U6T5 in G19R format) heavy: EVQLLESGGGLVQPGGSLRLSCAASGFTFSSHAMSWVRQAPGKGLEWVSTITGGGGSIYYADSVKGRFTISRDNSKNTLYLQMNSLRAEDTAVYYCAKNRAGEGYFDYWGQGTLVTVLEDLKNVFPPEVAVFEPSEAEISHTQKATLVCLATGFYPDHVELSWWVNGKEVHSGVCTDPQPLKEQPALQDSRYALSSRLRVSATFWQNPRNHFRCQVQFYGLSENDEWTQDRAKPVTQIVSAEAWGRYGPPCPPCPAPEFLGGPSVFLFPPKPKDTLMISRTPEVTCVVVDVSQEDPEVQFNWYVDGVEVHNAKTKPREEQFNSTYRVVSVLTVLHQDWLNGKEYKCKVSNKGLPSSIEKTISKAKGQPREPQVYTLPPSQEEMTKNQVSLTCLVKGFYPSDIAVEWESNGQPENNYKTTPPVLDSDGSFFLYSRLTVDKSRWQEGNVFSCSVMHEALHNHYTQKSLSLSLGGGGGSGGGGSGGGGSGGGGSQVQLVQSGAEVKKPGSSVKVSCKASGYTFTNYFMNWVRQAPGQGLEWMGRVDPEQGRADYAEKFKKRVTITADKSTSTAYMELSSLRSEDTAVYYCARRAMDNYGFAYWGQGTLVTVSSASTKGPSVFPLAPCSRSTSESTAALGCLVKDYFPEPVTVSWNSGALTSGVHTFPAVLQSSGLYSLSSVVTVPSSSLGTKTYTCNVDHKPSNTKVDKRV light 1: SYELTQPLSVSVALGQTARITCGGDNIGNKDVHWYQQKPGQAPVLVIYRDSNRPSGIPEGFSGSNSGNTATLTISRAQAGDEADYYCQVWDSIWVFGGGTKLTVLPDIQNPDPAVYQLRDSKSSDKSVCLFTDFDSQTQVSQSKDSDVYITDKCVLDMRSMDFKSNSAVAWSQKSDFACANAFQNSIIPEDTFFPSPESS light 2: EIVLTQSPDFQSVTPKEKVTITCSANSALSYMYWYQQKPDQSPKLWVHGTSNLASGVPSRFSGSGSGTDFTLTINSLEAEDAATYYCHHWSNTQWTFGGGTKVEIKRTVAAPSVFIFPPSDEQLKSGTASVVCLLNNFYPREAKVQWKVDNALQSGNSQESVTEQDSKDSTYSLSSTLTLSKADYEKHKVYACEVTHQGLSSPVTKSFNRGEC |  |
| 8.36 | 1.56 | U6T5.G25R.IgG4, bispecific anti-PD-1 x CTLA-4 (bispecific antibody, also called U6T5.G25R.uIgG4; U6T5 in G25R format) heavy: EVQLLESGGGLVQPGGSLRLSCAASGFTFSSHAMSWVRQAPGKGLEWVSTITGGGGSIYYADSVKGRFTISRDNSKNTLYLQMNSLRAEDTAVYYCAKNRAGEGYFDYWGQGTLVTVSSASTKGPSVFPLAPCSRSTSESTAALGCLVKDYFPEPVTVSWNSGALTSGVHTFPAVLQSSGLYSLSSVVTVPSSSLGTKTYTCNVDHKPSNTKVDKRVGGGGSGGGGSQVQLVQSGAEVKKPGSSVKVSCKASGYTFTNYFMNWVRQAPGQGLEWMGRVDPEQGRADYAEKFKKRVTITADKSTSTAYMELSSLRSEDTAVYYCARRAMDNYGFAYWGQGTLVTVLEDLKNVFPPEVAVFEPSEAEISHTQKATLVCLATGFYPDHVELSWWVNGKEVHSGVCTDPQPLKEQPALQDSRYALSSRLRVSATFWQNPRNHFRCQVQFYGLSENDEWTQDRAKPVTQIVSAEAWGRYGPPCPPCPAPEFLGGPSVFLFPPKPKDTLMISRTPEVTCVVVDVSQEDPEVQFNWYVDGVEVHNAKTKPREEQFNSTYRVVSVLTVLHQDWLNGKEYKCKVSNKGLPSSIEKTISKAKGQPREPQVYTLPPSQEEMTKNQVSLTCLVKGFYPSDIAVEWESNGQPENNYKTTPPVLDSDGSFFLYSRLTVDKSRWQEGNVFSCSVMHEALHNHYTQKSLSLSLGK light 1: SYELTQPLSVSVALGQTARITCGGDNIGNKDVHWYQQKPGQAPVLVIYRDSNRPSGIPEGFSGSNSGNTATLTISRAQAGDEADYYCQVWDSIWVFGGGTKLTVLGQPKAAPSVTLFPPSSEELQANKATLVCLISDFYPGAVTVAWKADSSPVKAGVETTTPSKQSNNKYAASSYLSLTPEQWKSHKSYSCQVTHEGSTVEKTVAPTECS light 2: EIVLTQSPDFQSVTPKEKVTITCSANSALSYMYWYQQKPDQSPKLWVHGTSNLASGVPSRFSGSGSGTDFTLTINSLEAEDAATYYCHHWSNTQWTFGGGTKVEIKPDIQNPDPAVYQLRDSKSSDKSVCLFTDFDSQTQVSQSKDSDVYITDKCVLDMRSMDFKSNSAVAWSQKSDFACANAFQNSIIPEDTFFPSPESS |  |
